According to the Human Domainome abundance scans (Beltran et al. 2025):
± gives the uncertainty stated by the source.

B1: Ankyrin-1, residues 1405 to 1484; numbered along this chain, P16157 (parent)
chain: MKMAVISEHLGLSWAELARELQFSVEDINRIRVENPNSLLEQSVALLNLWVIREGQNANMENLYTALQSIDRGEIVNMLE

Variants of: B1
Assay: abundance fitness (aPCA) (normalised: wild type 0, dead -1); higher = more abundant; growth selection in yeast, the domain comes from the species named
Details: Homo sapiens

Row | Variant | abundance fitness
1 | S69A | -0.045 ± 0.051
2 | S69I | -0.047 ± 0.078
3 | S69K | -0.035 ± 0.099
4 | S69R | -0.006 ± 0.053
5 | S69P | -0.467 ± 0.13
6 | S69N | -0.106 ± 0.11
7 | M78N | -0.01 ± 0.15
8 | M78V | 0.043 ± 0.061
9 | M78D | -0.013 ± 0.096
10 | M78R | 0.034 ± 0.051
11 | M78I | 0.041 ± 0.12
12 | M78L | 0.001 ± 0.059
13 | L49C | -0.097 ± 0.09
14 | L49Y | -0.037 ± 0.069
15 | L49G | -0.11 ± 0.046
16 | L49F | -0.19 ± 0.091
17 | Q68T | -0.256 ± 0.11
18 | Q68D | -0.109 ± 0.11
19 | Q68A | -0.012 ± 0.058
20 | Q68Y | -0.202 ± 0.14
21 | Q68F | -0.178 ± 0.13
22 | N57P | -0.061 ± 0.12
23 | N57K | -0.117 ± 0.11
24 | N57V | -0.068 ± 0.095

Row | Variant | abundance fitness
25 | N57A | -0.212 ± 0.13
26 | N57C | -0.168 ± 0.21
27 | G11L | -0.447 ± 0.11
28 | G73Q | -0.141 ± 0.066
29 | G73K | -0.289 ± 0.079
30 | G73R | -0.297 ± 0.04
31 | N62L | -0.037 ± 0.09
32 | N62D | 0.109 ± 0.11
33 | N62E | -0.197 ± 0.17
34 | L67V | -0.771 ± 0.11
35 | L67S | -0.829 ± 0.14
36 | L67P | -0.858 ± 0.26
37 | L67A | -0.895 ± 0.22
38 | L67I | -0.156 ± 0.14
39 | L39H | -0.42 ± 0.26
40 | L39Q | 0.019 ± 0.17
41 | L39P | 0.058 ± 0.12
42 | L39D | -0.063 ± 0.18
43 | L39R | -0.554 ± 0.074
44 | L39C | 0.066 ± 0.14
45 | M3R | -0.045 ± 0.038
46 | M3Q | -0.197 ± 0.099
47 | M3S | -0.365 ± 0.066
48 | M3P | -0.474 ± 0.076

Row | Variant | abundance fitness
49 | M3L | 0.208 ± 0.049
50 | R30W | -0.328 ± 0.076
51 | R30C | -0.022 ± 0.12
52 | E20D | -0.508 ± 0.15
53 | E20M | -0.077 ± 0.12
54 | E20C | -0.125 ± 0.077
55 | E20S | -0.145 ± 0.049
56 | E20F | -0.345 ± 0.093
57 | E20G | -0.49 ± 0.068
58 | V33G | -0.041 ± 0.04
59 | V33R | 0.021 ± 0.038
60 | V33C | 0.174 ± 0.12
61 | V33E | -0.014 ± 0.068
62 | V33Q | 0.033 ± 0.09
63 | V33I | -0.018 ± 0.13
64 | A18P | -0.912 ± 0.17
65 | A18T | -0.89 ± 0.2
66 | A18I | -0.77 ± 0.16
67 | A18F | -0.872 ± 0.28
68 | A18W | -0.9 ± 0.19
69 | R53F | -0.927 ± 0.22
70 | R53D | -0.613 ± 0.15
71 | R53V | -0.847 ± 0.11
72 | R53E | -0.512 ± 0.1

Row | Variant | abundance fitness
73 | R53N | -0.31 ± 0.26
74 | R53P | -0.983 ± 0.21
75 | R53Q | -0.483 ± 0.11
76 | Q42V | -0.813 ± 0.1
77 | Q42I | -0.915 ± 0.27
78 | Q42M | -0.172 ± 0.12
79 | Q42G | -0.923 ± 0.12
80 | I28D | -0.584 ± 0.43
81 | V76L | -0.054 ± 0.06
82 | V76H | -0.465 ± 0.19
83 | V76M | -0.307 ± 0.097
84 | V76T | -0.244 ± 0.067
85 | V76Q | -0.505 ± 0.12
86 | F23L | -0.443 ± 0.061
87 | F23C | -0.51 ± 0.16
88 | F23T | -0.908 ± 0.31
89 | F23I | 0 ± 0.1
90 | F23Y | -0.478 ± 0.12
91 | F23K | -0.786 ± 0.18
92 | F23R | -0.833 ± 0.085
93 | F23P | -0.918 ± 0.21
94 | T65M | -0.15 ± 0.076
95 | E54D | -0.3 ± 0.1
96 | E54G | -0.115 ± 0.049

Row | Variant | abundance fitness
97 | E54C | -0.198 ± 0.089
98 | E54Y | -0.357 ± 0.15
99 | E54F | -0.606 ± 0.15
100 | E26L | -0.153 ± 0.053
101 | E26F | -0.369 ± 0.14
102 | E26R | -0.104 ± 0.051
103 | E26I | -0.303 ± 0.15
104 | E26A | -0.2 ± 0.066
105 | E26K | -0.059 ± 0.073
106 | V25S | 0.002 ± 0.054
107 | V25I | -0.143 ± 0.21
108 | V25G | -0.119 ± 0.038
109 | V25L | -0.073 ± 0.036
110 | V25T | -0.159 ± 0.079
111 | E16D | 0.068 ± 0.089
112 | E16A | -0.041 ± 0.059
113 | E16V | -0.037 ± 0.05
114 | E16K | -0.088 ± 0.086
115 | E16H | -0.104 ± 0.12
116 | L79Q | -0.115 ± 0.11
117 | L79F | -0.331 ± 0.14
118 | L79M | 0.039 ± 0.082
119 | D71M | -0.127 ± 0.14
120 | D71N | 0.006 ± 0.083

Row | Variant | abundance fitness
121 | D71A | -0.229 ± 0.053
122 | D71P | -0.437 ± 0.11
123 | A66T | -0.794 ± 0.13
124 | A66N | -0.562 ± 0.19
125 | A66I | -0.564 ± 0.28
126 | A66P | -0.1 ± 0.066
127 | A66F | -1.05 ± 0.48
128 | R32V | -0.041 ± 0.059
129 | R32Q | -0.132 ± 0.066
130 | R32H | -0.294 ± 0.12
131 | R32N | -0.369 ± 0.17
132 | L47E | -0.874 ± 0.22
133 | L47V | -0.308 ± 0.066
134 | V51A | -0.072 ± 0.079
135 | V51R | 0.065 ± 0.06
136 | V51M | 0.026 ± 0.11
137 | V51S | 0.128 ± 0.051
138 | Y64G | -0.274 ± 0.056
139 | Y64V | -0.225 ± 0.061
140 | Y64I | -0.302 ± 0.13
141 | Y64Q | -0.594 ± 0.2
142 | Y64H | -0.312 ± 0.17
143 | Y64A | -0.494 ± 0.12
144 | Y64E | -0.353 ± 0.096

Row | Variant | abundance fitness
145 | N77P | -0.283 ± 0.11
146 | N77Q | 0.148 ± 0.11
147 | N77H | -0.175 ± 0.22
148 | N77Y | -0.215 ± 0.16
149 | N77S | -0.005 ± 0.073
150 | N77D | -0.347 ± 0.19
151 | N77K | 0.03 ± 0.12
152 | H9P | -0.666 ± 0.18
153 | H9S | -0.868 ± 0.39
154 | H9F | -0.249 ± 0.18
155 | H9Y | -0.388 ± 0.13
156 | H9M | -0.302 ± 0.12
157 | W50Q | -0.708 ± 0.39
158 | W50Y | 0.015 ± 0.17
159 | S7C | -0.089 ± 0.068
160 | S7R | -0.504 ± 0.059
161 | S7H | -0.877 ± 0.39
162 | S7W | -0.691 ± 0.14
163 | S7E | -0.261 ± 0.089
164 | S7T | -0.226 ± 0.1
165 | S7D | -0.821 ± 0.16
166 | S7K | -0.786 ± 0.21
167 | S7M | -0.852 ± 0.4
